Assay [1] deals with T1, GFRα4 isoform a (GFRα4a), Fc fusion with 6 His (human).
T1 construct: the entry holds the whole fusion; also called GFR4α4a; immobilized GFRα4 isoform a
T1 chain: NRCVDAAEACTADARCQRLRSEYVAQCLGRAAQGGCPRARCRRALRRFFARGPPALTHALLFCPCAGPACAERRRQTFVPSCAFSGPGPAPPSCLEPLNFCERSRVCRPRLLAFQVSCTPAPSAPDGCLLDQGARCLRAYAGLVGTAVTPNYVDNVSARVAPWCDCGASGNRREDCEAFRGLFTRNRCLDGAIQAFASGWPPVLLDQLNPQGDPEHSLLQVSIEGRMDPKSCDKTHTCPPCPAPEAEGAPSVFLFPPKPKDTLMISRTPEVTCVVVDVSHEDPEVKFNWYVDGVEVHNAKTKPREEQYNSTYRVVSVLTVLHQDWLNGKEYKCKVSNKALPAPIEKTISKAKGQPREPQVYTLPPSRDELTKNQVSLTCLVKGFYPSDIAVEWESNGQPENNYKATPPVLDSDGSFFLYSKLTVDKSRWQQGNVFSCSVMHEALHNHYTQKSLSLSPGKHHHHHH
Put plainly: phage ELISA, immobilized GFRα4a; first token of the cell. From the text:
(§1) To perform these ELISAs, the GFRα4a isoform comprising a portion of GFRα4a (Asn24 -Ser245, UniProt accession #Q9GZZ7-2) was used, followed by a Factor Xa cleavage site/linker, a portion of optimized IgG1 Fc domain (Pro100-Lys330), and 6 His residues for purification. The GFRα4b isoform comprised a portion of GFRα4b (Asn24-Va1274, UniProt #Q9GZZ7-1), followed by a TEV cleavage site linker, and a portion of human IgG1 Fc domain (Asp104-Lys330).
(ELISA stands for enzyme-linked immunosorbent assay.)

The target in assay [2] is T2, GFRα4 isoform b (GFRα4b), Fc fusion (human).
T2 construct: the entry holds the whole fusion; also called GFR4α4b; GFRα4-Fc
Put plainly: phage ELISA, immobilized GFRα4b; second token of the cell.
From the text: as §1

B1: 4.H1m1.L3m1 (scFv)
scFv: QFVLTQPASVSGSPGQSITISCTLSSAHKTYTIDWYQQHPGKAPKYLMQVKSDGSYTKGTGVPNRFSGSSSGADRYLTISGLQAEDEADYVCGADDNGGYVFGGGTQLTVTGGGSSRSSSSGGGGSGGGGQQSVKESGPGLVKPSETLSLTCAVSGFSLSRHALTWVRQPPGKGLEWIGAIDNAGTTYYASWAKSRVTISRNTDLHTVSLKLSSVTAADTAVYFCARVFYDINSGYYLDGMDLWGPGTLVTVSS
notes: pIII not in the entry; order Vλ-linker-VH; also called scFv 4
Take B1: the binding result in assay [1] and in assay [2] was “binds” throughout.

B2: 10.H2.L1m1 (scFv)
scFv: QFVLTQSPSASASLGASVKLTCTLSSAHKTYTIDWYQQQPEKGPRYLMQVKSDGSYTKGTGVPDRFSGSSSGADRYLTISSLQSEDEADYYCGADDNGGYVFGGGTQLTVTGGGSSRSSSSGGGGSGGGGEVQLVESGGGLVQPGGSLRLSCAASGFTFSRHALTWVRQAPGKGLEWVSAIDNAGTTYYASWAKSRFTISRDNAKNSLYLQMNSLRAEDTAVYYCARVFYDINSGYYLDGMDLWGPGTLVTVSS
notes: pIII not in the entry; order Vλ-linker-VH; also called scFv 10
With B2, the binding result in assay [1] and in assay [2] was “binds” in each case.

B3: 28.H1.L3m5 (scFv)
scFv: QSALTQPASVSGSPGQSITISCTGTSAHKTYTVSWYQQHPGKAPKLMIYVKSDGSYTKGTGVPNRFSGSSSGADRYLTISGLQAEDEADYYCGADDNGGYVFGGGTQLTVLGGGSSRSSSSGGGGSGGGGQVQLQESGPGLVKPSETLSLTCAVSGYSISRHALTWIRQPPGKGLEWIGAIDNAGTTYYASWAKSRVTISVDTSKNQFSLKLSSVTAADTAVYYCARVFYDINSGYYLDGMDLWGPGTLVTVSS
notes: pIII not in the entry; order Vλ-linker-VH; also called scFv 28
In the case of B3, the binding result in assay [1] and in assay [2] was “no binding” in each case.

B4: 17.H1.L3m2 (scFv)
scFv: QFVLTQPASVSGSPGQSITISCTLSSAHKTYTIDWYQQHPGKAPKLMIQVKSDGSYTKGTGVSNRFSGSSSGADRYLTISGLQAEDEADYYCGADDNGGYVFGGGTQLTVLGGGSSRSSSSGGGGSGGGGQVQLQESGPGLVKPSETLSLTCAVSGYSISRHALTWIRQPPGKGLEWIGAIDNAGTTYYASWAKSRVTISVDTSKNQFSLKLSSVTAADTAVYYCARVFYDINSGYYLDGMDLWGPGTLVTVSS
notes: pIII not in the entry; order Vλ-linker-VH; also called scFv 17
Consider B4, for which the binding result in assay [2] is reported as “binds”.

B5: 18.H1.L3m3 (scFv)
scFv: QSALTQPASVSGSPGQSITISCTGTSAHKTYTIDWYQQHPGKAPKLMIYVKSDGSYTKGTGVSNRFSGSKSGNTASLTISGLQAEDEADYYCGADDNGGYVFGGGTQLTVLGGGSSRSSSSGGGGSGGGGQVQLQESGPGLVKPSETLSLTCAVSGYSISRHALTWIRQPPGKGLEWIGAIDNAGTTYYASWAKSRVTISVDTSKNQFSLKLSSVTAADTAVYYCARVFYDINSGYYLDGMDLWGPGTLVTVSS
notes: pIII not in the entry; order Vλ-linker-VH; also called scFv 18
For the molecule B5, the binding result in assay [1] and in assay [2] was “no binding” each time.

B6: 27.H1.L3m4 (scFv)
scFv: QSALTQPASVSGSPGQSITISCTGTSAHKTYTVSWYQQHPGKAPKYLMQVKSDGSYTKGTGVPNRFSGSSSGADRYLTISGLQAEDEADYYCGADDNGGYVFGGGTQLTVLGGGSSRSSSSGGGGSGGGGQVQLQESGPGLVKPSETLSLTCAVSGYSISRHALTWIRQPPGKGLEWIGAIDNAGTTYYASWAKSRVTISVDTSKNQFSLKLSSVTAADTAVYYCARVFYDINSGYYLDGMDLWGPGTLVTVSS
notes: pIII not in the entry; order Vλ-linker-VH; also called scFv 27
On to B6, for which the binding result in assay [1] and in assay [2] was “no binding” throughout.

B7: 25.H1.L1m3 (scFv)
scFv: QLVLTQSPSASASLGASVKLTCTLSSAHKTYTIDWYQQQPEKGPRYLMQVKSDGSYTKGTGVPDRFSGSSSGADRYLTISSLQSEDEADYYCGADDNGGYVFGGGTQLTVLGGGSSRSSSSGGGGSGGGGQVQLQESGPGLVKPSETLSLTCAVSGYSISRHALTWIRQPPGKGLEWIGAIDNAGTTYYASWAKSRVTISVDTSKNQFSLKLSSVTAADTAVYYCARVFYDINSGYYLDGMDLWGPGTLVTVSS
notes: pIII not in the entry; order Vλ-linker-VH; also called scFv 25
For the molecule B7, the binding result in assay [1] and in assay [2] was “binds” each time.

B8: 14.H1.L1m1 (scFv)
scFv: QFVLTQSPSASASLGASVKLTCTLSSAHKTYTIDWYQQQPEKGPRYLMQVKSDGSYTKGTGVPDRFSGSSSGADRYLTISSLQSEDEADYYCGADDNGGYVFGGGTQLTVTGGGSSRSSSSGGGGSGGGGQVQLQESGPGLVKPSETLSLTCAVSGYSISRHALTWIRQPPGKGLEWIGAIDNAGTTYYASWAKSRVTISVDTSKNQFSLKLSSVTAADTAVYYCARVFYDINSGYYLDGMDLWGPGTLVTVSS
notes: pIII not in the entry; order Vλ-linker-VH; also called scFv 14
In the case of B8, the binding result in assay [1] and in assay [2] was “binds” in each case.

B9: 26.H1.L1m4 (scFv)
scFv: QLVLTQSPSASASLGASVKLTCTLSSAHKTYTIAWHQQQPEKGPRYLMQVKSDGSYTKGTGVPDRFSGSSSGADRYLTISSLQSEDEADYYCGADDNGGYVFGGGTQLTVLGGGSSRSSSSGGGGSGGGGQVQLQESGPGLVKPSETLSLTCAVSGYSISRHALTWIRQPPGKGLEWIGAIDNAGTTYYASWAKSRVTISVDTSKNQFSLKLSSVTAADTAVYYCARVFYDINSGYYLDGMDLWGPGTLVTVSS
notes: pIII not in the entry; order Vλ-linker-VH; also called scFv 26
Take B9: the binding result in assay [1] and in assay [2] was “no binding” in each case.

B10: 22.H1.L1m2 (scFv)
scFv: QFVLTQSPSASASLGASVKLTCTLSSAHKTYTIDWHQQQPEKGPRYLMQVKSDGSYTKGTGIPDRFSGSSSGAERYLTISSLQSEDEADYYCGADDNGGYVFGGGTQLTVLGGGSSRSSSSGGGGSGGGGQVQLQESGPGLVKPSETLSLTCAVSGYSISRHALTWIRQPPGKGLEWIGAIDNAGTTYYASWAKSRVTISVDTSKNQFSLKLSSVTAADTAVYYCARVFYDINSGYYLDGMDLWGPGTLVTVSS
notes: pIII not in the entry; order Vλ-linker-VH; also called scFv 22
B10: the binding result in assay [1] and in assay [2] was “no binding” each time.

B11: 12.H2m1.L1m1 (scFv)
scFv: QFVLTQSPSASASLGASVKLTCTLSSAHKTYTIDWYQQQPEKGPRYLMQVKSDGSYTKGTGVPDRFSGSSSGADRYLTISSLQSEDEADYYCGADDNGGYVFGGGTQLTVTGGGSSRSSSSGGGGSGGGGEQSVKESGGGLVQPGGSLRLSCAASGFTLSRHALTWVRQAPGKGLEWIGAIDNAGTTYYASWAKSRFTISRNTDLHTVYLQMNSLRAEDTAVYFCARVFYDINSGYYLDGMDLWGPGTLVTVSS
notes: pIII not in the entry; order Vλ-linker-VH; The printed entry has an E before QSVKE of the VH; also called scFv 12
Turning to B11, the binding result in assay [1] and in assay [2] was “binds” each time.

B12: 19.H2.L2m2 (scFv)
scFv: QFVLTQPPSASGTPGQRVTISCTLSSAHKTYTIDWYQQLPGTAPKLLIYVKSDGSYTKGTGVPDRFSGSSSGADASLAISGLQSEDEADYYCGADDNGGYVFGGGTQLTVLGGGSSRSSSSGGGGSGGGGEVQLVESGGGLVQPGGSLRLSCAASGFTFSRHALTWVRQAPGKGLEWVSAIDNAGTTYYASWAKSRFTISRDNAKNSLYLQMNSLRAEDTAVYYCARVFYDINSGYYLDGMDLWGPGTLVTVSS
notes: pIII not in the entry; order Vλ-linker-VH; also called scFv 19
For B12, the binding result in assay [1] and in assay [2] was “no binding” in each case.

B13: 20.H2.L2m3 (scFv)
scFv: QSVLTQPPSASGTPGQRVTISCTLSSAHKTYTIDWYQQLPGTAPKLLIYVKSDGSYTKGTGVPDRFSGSKSGTSASLAISGLQSEDEADYYCGADDNGGYVFGGGTQLTVLGGGSSRSSSSGGGGSGGGGEVQLVESGGGLVQPGGSLRLSCAASGFTFSRHALTWVRQAPGKGLEWVSAIDNAGTTYYASWAKSRFTISRDNAKNSLYLQMNSLRAEDTAVYYCARVFYDINSGYYLDGMDLWGPGTLVTVSS
notes: pIII not in the entry; order Vλ-linker-VH; also called scFv 20
B13: the binding result in assay [1] and in assay [2] was “no binding” throughout.

B14: 6.H2.L2m1 (scFv)
scFv: QFVLTQPPSASGTPGQRVTISCTLSSAHKTYTIDWYQQLPGTAPKLLIYVKSDGSYTKGTGVPDRFSGSSSGADRYLAISGLQSEDEADYYCGADDNGGYVFGGGTQLTVTGGGSSRSSSSGGGGSGGGGEVQLVESGGGLVQPGGSLRLSCAASGFTFSRHALTWVRQAPGKGLEWVSAIDNAGTTYYASWAKSRFTISRDNAKNSLYLQMNSLRAEDTAVYYCARVFYDINSGYYLDGMDLWGPGTLVTVSS
notes: pIII not in the entry; order Vλ-linker-VH; also called scFv 6
For B14, the binding result in assay [1] and in assay [2] was “binds” in each case.

B15: 8.H2m1.L2m1 (scFv)
scFv: QFVLTQPPSASGTPGQRVTISCTLSSAHKTYTIDWYQQLPGTAPKLLIYVKSDGSYTKGTGVPDRFSGSSSGADRYLAISGLQSEDEADYYCGADDNGGYVFGGGTQLTVTGGGSSRSSSSGGGGSGGGGEQSVKESGGGLVQPGGSLRLSCAASGFTLSRHALTWVRQAPGKGLEWIGAIDNAGTTYYASWAKSRFTISRNTDLHTVYLQMNSLRAEDTAVYFCARVFYDINSGYYLDGMDLWGPGTLVTVSS
notes: pIII not in the entry; order Vλ-linker-VH; The printed entry has an E before QSVKE of the VH; also called scFv 8
With B15, the binding result in assay [1] and in assay [2] was “binds” throughout.

For the origin of these results see patent US20210095036A1 (University of Pennsylvania, published 2021).
